The chains are these.
T1: C5a receptor (C5aR) expressed on the surface of human PMNs (human, UniProt P21730 1-350)
T1 construct: whole, on cells; Endogenous receptor on intact human polymorphonuclear cells; also called C5aRs
T1 sequence (looked up): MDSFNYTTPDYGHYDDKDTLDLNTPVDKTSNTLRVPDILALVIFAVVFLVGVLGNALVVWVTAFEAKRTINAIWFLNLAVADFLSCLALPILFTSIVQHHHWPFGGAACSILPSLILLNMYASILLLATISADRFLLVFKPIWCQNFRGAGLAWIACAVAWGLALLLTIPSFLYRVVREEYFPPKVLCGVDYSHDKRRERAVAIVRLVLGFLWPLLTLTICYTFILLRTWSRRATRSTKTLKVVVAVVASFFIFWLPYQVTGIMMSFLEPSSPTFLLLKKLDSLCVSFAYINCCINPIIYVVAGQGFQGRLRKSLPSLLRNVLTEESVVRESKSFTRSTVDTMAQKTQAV

B1: C5a C-terminal decapeptide agonist analog YSFKPMPLaR (peptide)
peptide: YSFKPMPL[dA]R
notes: Synthetic peptide; also called C5a agonist; peptide (2)
B2: IPQSLDSWWTSLRRYSFKPMPLaR (double-Arg-linked C5a-active construct) (peptide)
peptide: IPQSLDSWWTSLRRYSFKPMPL[dA]R
notes: Synthetic peptide; also called RR-containing construct
B3: IPQSLDSWWTSLRVRRYSFKPMPLaR (RVRR furin-sensitive-linked C5a-active construct) (peptide)
peptide: IPQSLDSWWTSLRVRRYSFKPMPL[dA]R
notes: Synthetic peptide; also called RVRR-containing construct
B4: IPQSLDSWWTSLYSFKPMPLaR (HBsAg CTL epitope attached directly to N-terminus of the C5a agonist) (peptide)
peptide: IPQSLDSWWTSLYSFKPMPL[dA]R
notes: Synthetic peptide; also called C5a-active construct without linker
B5: natural C5a (ligand, UniProt P01031 678-751, looked up)
chain: TLQKKIEEIAAKYKHSVVKKCCYDGACVNNDETCEQRAARISLGPRCIKAFTECCVVASQLRANISHKDMQLGR
modifications: 125I label on the tracer form used in the competition assay
notes: C5a is only a fragment of it

The source of these data is patent US20070031445A1 (BOARD OF REGENTS OF THE UNIVERSITY OF NEBRASKA, published 2007).

Where no end group is shown, it is not given here. [ ]: non-standard residue; d: D form.

The IC50 is the concentration needed to halve the response being measured. High values mean a need for much substance, low ones inhibition by little substance.

One assay has as its target T1, C5a receptor (C5aR) expressed on the …. Kind of assay: competition with 125I-C5a on intact human PMNs (column headed EC50; 50% inhibition of 125I-C5a binding).
For the molecule YSFKPMPL[dA]RRRIPQSLDSWWTSL (Synthetic peptide) [YSFKPMPLa[…] (C5a-inactive construct, C-terminus of agonist blocked by the HBsAg CTL epitope)], the IC50 was determined as 465 µM.
On the same count and under the same terms, for B1 the value was 2.34 µM; for B2, 0.416 µM.
For the molecule B3, the half-inhibitory concentration (IC50) amounted to 0.529 µM.
Still for that read-out and setting: for B4 the value was 3.69 µM; for IPQSLDSWWTSLRRYSFKPMPL[dA]RG (Synthetic peptide), 17 µM.
The same measure, in the same setting: for B5 the value was 0.0004 µM.

The target is the same in another assay. Kind of assay: cell-based or functional assay.
Consider YSFKPMPL[dA]RRRIPQSLDSWWTSL (Synthetic peptide) [YSFKPMPLa[…] (C5a-inactive construct, C-terminus of agonist blocked by the HBsAg CTL epitope)], for which the “EC50, smooth muscle contraction of human umbilical artery” value (“EC50, smooth muscle contraction” for short) is 39.4 µM and the “pD2, smooth muscle contraction of human umbilical artery” value (shortened to “pD2, smooth muscle contraction”) is 4.41 -log EC50 (M).
B1: the “EC50, smooth muscle contraction” value was found to be 0.01 µM.
On to B2, for which the “EC50, smooth muscle contraction” value is 0.161 µM and the “pD2, smooth muscle contraction” value is 6.79 -log EC50 (M).
For the molecule B3, the “EC50, smooth muscle contraction” value was 0.18 µM and the “pD2, smooth muscle contraction” value is 6.67 -log EC50 (M).
The like results for B4 were, in that order, 0.21 µM and 6.68 -log EC50 (M).
In the case of IPQSLDSWWTSLRRYSFKPMPL[dA]RG (Synthetic peptide), the “EC50, smooth muscle contraction” value was found to be 6.78 µM and the “pD2, smooth muscle contraction” value was 5.17 -log EC50 (M).
For the molecule B5, the “EC50, smooth muscle contraction” value came out at 0.002 µM.

For another assay the target is unchanged. Kind of assay: cell-based or functional assay. The source holds these as a separate data set.
In the case of YSFKPMPL[dA]RRRIPQSLDSWWTSL (Synthetic peptide) [YSFKPMPLa[…] (C5a-inactive construct, C-terminus of agonist blocked by the HBsAg CTL epitope)], the “EC50, MPO release from human PMNs” value is over 1000 µM.
On to B2, for which the “EC50, MPO release from human PMNs” value worked out at 0.54 µM and the “pD2, MPO release from human PMNs” value was 6.27 -log EC50 (M).
On the same counts, the results for B3 are 2.15 µM and 5.61 -log EC50 (M).
As to B4, the “EC50, MPO release from human PMNs” value was found to be 1.58 µM and the “pD2, MPO release from human PMNs” value is 5.8 -log EC50 (M).
On the same counts, the results for IPQSLDSWWTSLRRYSFKPMPL[dA]RG (Synthetic peptide) are 2.56 µM and 5.59 -log EC50 (M).
In the case of B5, the “EC50, MPO release from human PMNs” value was determined as 0.003 µM.

For the next assay the target is unchanged. Kind of assay: competition with 125I-C5a on intact human PMNs.
Experimental: Statistical analysis of the values obtained from pharmacologic assays was performed using one-way analysis of variance (ANOVA).
For the molecule YSFKPMPL[dA]RRRIPQSLDSWWTSL (Synthetic peptide) [YSFKPMPLa[…] (C5a-inactive construct, C-terminus of agonist blocked by the HBsAg CTL epitope)], the “pD2 (-log IC50 (M))” value was 3.33 -log IC50 (M).
On the same count and under the same terms, for B1 the value was 5.63 -log IC50 (M).
Same read-out and setting: next, B2: 6.38 -log IC50 (M); B3: 6.28 -log IC50 (M); B4: 5.43 -log IC50 (M).
Same read-out and setting: for IPQSLDSWWTSLRRYSFKPMPL[dA]RG (Synthetic peptide) the value was 4.77 -log IC50 (M); for B5, 9.43 -log IC50 (M).
